According to article PMC4609290:

Molecular target: H3(15-34) peptide (UniProt P68431)
Test: ITC

Kd: 5 µM
Substance: AF10PZP (as used for ITC) (from UniProt P55197-1 1-208) (domain or fragment)
